In US9539306B2, “Anti-tumor drug, medicament, composition, and use thereof” (GENE SIGNAL INTERNATIONAL SA, priority 2007, dated 2017):

How the values were obtained:
[1] = system: CALU-6 cells (human lung carcinoma); assay: Human non-small cell lung cancer (CALU-6) xenograft model, tumor growth; format: in vivo, Swiss Nude mice; parameters: Growth inhibition based on T/C ratio, T/C ratio (%): concentration or dose not given beside the values; conditions: for MTV (mean tumor volume): IP Q2DX8, 168A-T2 15 mg/kg, CDDP 5 mg/kg; for MRTV (mean relative tumor volume): ratio of MTV at time t to volume at D12; for Growth inhibition based on T/C ratio, T/C ratio (%): versus vehicle group 1
Description: CALU-6 cells were cultured as adherent cells in complete EMEM medium (Ref. CM1MEM18-01, batch No. 462502, Eurobio, France) 10% fetal calf serum (FCS; Ref. CVFSVF00-01, batch No. S13021, Eurobio, France) under a 37° C., 5% CO2 humidified atmosphere. They were amplified in 75 cm^2-flasks to reach 90×10^6 cells.
At D0, CALU-6 cells (human lung carcinoma) were collected from 75 cm^2-flasks by removing the medium and adding 3 ml of trypsine-EDTA (Ref. CEZTDA00-0U, batch No. 633920, Eurobio, France). After 5 min of incubation at 37° C., cells had detached from the plastic and the enzymatic reaction was stopped by adding 3 ml of EMEM medium containing 10% fetal calf serum. Cells were then centrifuged at 700 g for 5 min at room temperature. They were resuspended in serum-free EMEM culture medium. Cells were counted and viability assessment by Trypan Blue exclusion (Ref. CSTCOL03-0U, batch No. 434511, Eurobio, France). The number of viable CALU-6 cells was >99%. The number of cells was then adjusted to 25×10^6 cells/ml in serum-free medium.
Thirty healthy female Swiss Nude mice were anesthetized by IP injection of Ketamine-Xylazine (80 mg/kg-12 mg/kg; Ref. K-113, Sigma, France). CALU-6 cells 5×10^6 cells/mouse in 200 μl of serum-free medium) were then implanted subcutaneously in the right flank of each mouse.
At D12 post-implantation of the CALU-6 cells, the thirty mice were randomized into […]. Tumor volumes had reached 54 to 296 mm^3 and mean tumor volumes were not statistically different between groups after randomization.
Injections in groups 1, 2, 3 and 4 were performed according to the schedules Q2DX8, i.e. 1 quantity every two days, eight times.
Ketamine/Xylazine (80 mg/kg-12 mg/kg; Ref. K-113, Sigma, France) was used to anaesthetize the animals before sacrifice by cervical dislocation. For all animals, the tumor size was measured twice a week with calipers. The tumor volume (mm^3) was measured according to the formula: (length×width^2)/2.
• Tumor growth curves were drawn using the mean tumor volumes (MTV), • Mean Relative tumor volume (MRTV) was calculated as the ratio between the MTV at time t and the volume at the time of injection (t=D12), • Tumor growth inhibition (T/C, %) was evaluated as the ratio of the median tumor volumes of treated groups versus vehicle group.
Statistical analyses of tumor volumes (TV), time to reach ‘TV’, tumor-doubling time (DT), relative tumor volume (RTV) and tumor growth inhibition (T/C) were performed for all groups. Data are expressed as mean±SD. Groups of data were normally distributed. Univariate analysis were performed to assess differences between groups. Statistical significance was then determined using the Student's t test. A P<0.05 was considered as statistically significant. The Statistical analysis was performed using XLSTAT (Addinsoft, France).

[2] = system: kidney cancer line (BizX); assay: Inhibition of kidney cancer cell line proliferation in vitro (MTT); format: cell-based; conditions: 48 hours, maximum over tested concentrations
Description: (§1) BizX cell preparation of 50000 cells/mL was prepared in complete medium. In a 96 wells plate, […] of the cell preparation was distributed in each well and then incubated with different concentrations of 168A-T2 (each concentration was tested in triplicate). After 48 hours of incubation at 37° C., […] of MTT ([…] in water) were added in each well. After 3 hours of incubation at 37° C., the culture medium was eliminated and […] of DMSO were added to solubilize MMT crystals. The optical density (OD) at 570 nm was then measured using μQuant micro-plate reader (Bio-Tek Instrument gmbh, Colmar, France) coupled to the KC4 (Bio-Tek) software. The OD was corrected by subtracting blank-well OD values (the OD values obtained from wells without cells), and the inhibition of cell proliferation was measured relative to control (OD obtained from wells with untreated kidney tumor cells representing the maximal proliferative response, i.e. 100%).

lung cancer line (Calu6) = assay: Inhibition of lung cancer cell line proliferation in vitro (MTT); format: cell-based, human; conditions: 48 hours, maximum over tested concentrations
Description: as §1
Calu6 cells were cultured and treated as described in example 5.

HUVEC [3] = assay: In vitro angiogenesis of HUVEC induced by FGF2 and VEGF on Matrigel; format: cell-based, human; conditions: 3.5, 6.9, 13.6 μg/mL (0.2, 0.4, 0.8 μM)
Description: The purified proteins 168A-T2 was tested in vitro on angiogenesis of HUVEC induced by FGF2 and VEGF on Matrigel.
24 wells plates were prepared with 250 μL of BD Matrigel™/well and then incubated 30 minutes in incubator. HUVEC cells were then prepared as described in example 2 and 70 000 cells (in 0.5 mL) were seeded per well and incubated with different concentrations of the purified protein 168A-T2, in Tris-HCl 20 mM buffer (pH 8), containing 150 mM NaCl and urea 2M; this buffer was used as control: • FIG. 2a: Control (Buffer Urea 2M) • FIG. 2b: 168A-T2 3.5 μg/mL (0.2 μM) • FIG. 2c: 168A-T2 6.9 μg/mL (0.4 μM) • FIG. 2d: 168A-T2 13.6 μg/mL (0.8 μM)

HUVEC cells = assay: Inhibition of endothelial cell proliferation in vitro (MTT); format: cell-based, human; conditions: comparison with literature (Binetruy-Tournaire et al.)
Description: HUVEC cells were cultured to confluency in complete EGM2-MV medium (Cambrex) at 37° C. and in 5% CO2 humidified atmosphere. Cells were then collected by trypsine-EDTA digestion (Versene, Eurobio). After 5 min, the enzymatic reaction was stopped by adding 3 ml of the culture medium containing 5% FCS. Cells were then centrifuged at 220 g for 10 min at room temperature, washed twice with 5 ml of culture medium, suspended in complete culture medium, counted and adjusted to 50 000 cells/ml. One hundred μL per well were then distributed to a 96-well cell culture grade micro-plate (5 000 cells/well) and incubated with different concentrations of the purified protein 168A-T2 in Tris-HCl 20 mM buffer (pH 8), containing 150 mM NaCl and urea 2M; this buffer was used as control.
After 42 hrs at 37° C., cell proliferation was measured using thiazolyl blue tetrazolium bromide (MTT) method. Briefly, MTT (Sigma) was dissolved in PBS at 5 mg/ml, the solution was filtered (0.22 μm) and 10 μl were added to each well of the 96-well micro-plates. […] The optical density (OD) at 570 nm was then measured using μQuant micro-plate reader (Bio-Tek Instrument gmbh, Colmar, France) coupled to the KC4 (Bio-Tek) software. […]

HUVEC [4] = assay: Migration of human endothelial cells (wound assay); format: cell-based; conditions: 12, 17, 23 μg/mL (0.7, 1, 1.35 μM); 18 hours
Description: Cell migration was tested by the wound assay described by Sato and Rifkin (J Cell Biol. 1988; 107:1199) with few modifications. HUVEC grown in growth medium EGM-2MV (Cambrex) were seeded in 24-well plates at 80 000 cells per well in 500 μL of growth medium and grown to confluence at 37° C. in a humidified atmosphere containing 5% CO2. Cells were scrapped with a plastic tip on one line only. After wounding, the culture medium was changed for fresh medium (control, FIG. 3a) or fresh medium supplemented with: • FIG. 3b: 168A-T2 12 μg/mL (0.7 μM) • FIG. 3c: 168A-T2 17 μg/mL (1 μM) • FIG. 3d: […] 23 μg/mL (1.35 μM)
After 18 hours of culture, cells were observed and photographed under the inverted microscope (Analysis, Olympus, Rungis, France).

Q: What does the source list for `N.N.[Cl][Pt][Cl]` [Cisplatin, cis-diamineplatinum(II) dichloride, reference compound]?
A: MTV (mean tumor volume) ([1]; D12 (start of treatment)): 142.60 mm^3; MTV (mean tumor volume) ([1]; D14): 351.15 mm^3; MTV (mean tumor volume) ([1]; D16): 291.29 mm^3; MTV (mean tumor volume) ([1]; D18): 329.18 mm^3; MTV (mean tumor volume) ([1]; D20): 386.84 mm^3; MTV (mean tumor volume) ([1]; D22): 470.59 mm^3; MTV (mean tumor volume) ([1]; D24): 595.00 mm^3; MTV (mean tumor volume) ([1]; D26): 527.98 mm^3; MTV (mean tumor volume) ([1]; D28): 742.44 mm^3

B1: 168A-T2: fragment of the extracellular domain of protein 168A, SEQ ID NO:4 (108 amino acids), recombinant from E. coli, 18 kD (protein, listed as Homo sapiens)
chain: MAFDVSWFAVHSFGLDKAPVLLSSLDRKGIVTTSRRDWKSDLSLERVSVLEFLLQVHGSEDQDFGNYYCSVTPWVKSPTGSWQKEAEIHSKPVFITVKMDVLNAFKYP
Q: For B1, which “inhibition of proliferation of kidney cancer line (BizX)” value [2] is on record?
A: up to 20%

Q: And the “inhibition of proliferation of lung cancer line (Calu6)” value (lung cancer line (Calu6))?
A: up to 40%

Q: What about the “inhibition of in vitro angiogenesis (capillary tube formation)” value (HUVEC [3]) of the same molecule?
A: inhibited in vitro angiogenesis in a dose-dependent manner

Q: What about the “potency relative to anti-VEGF mAb and/or VEGF receptor (KDR)-based identified peptides” value (HUVEC cells) of the same molecule?
A: at least 600 fold

Q: And the “MRTV (mean relative tumor volume)” value ([1]; D12 (reference time))?
A: 1

Q: And the “MTV (mean tumor volume)” value ([1]; D12 (start of treatment))?
A: 159.22 mm^3

Q: What about the “MTV (mean tumor volume)” value ([1]; D14) of the same molecule?
A: 181.94 mm^3

Q: What about the “MRTV (mean relative tumor volume)” value ([1]; D14) of the same molecule?
A: 1.15

Q: What about the “Growth inhibition based on T/C ratio, T/C ratio (%)” value ([1]; D14) of the same molecule?
A: 37%

Q: And the “MTV (mean tumor volume)” value ([1]; D16)?
A: 264.20 mm^3

Q: What about the “MRTV (mean relative tumor volume)” value ([1]; D16) of the same molecule?
A: 1.93

Q: And the “Growth inhibition based on T/C ratio, T/C ratio (%)” value ([1]; D16)?
A: 39%

Q: And the “MTV (mean tumor volume)” value ([1]; D18)?
A: 322.99 mm^3

Q: And the “MRTV (mean relative tumor volume)” value ([1]; D18)?
A: 2.08

Q: And the “Growth inhibition based on T/C ratio, T/C ratio (%)” value ([1]; D18)?
A: 17%

Q: What about the “MTV (mean tumor volume)” value ([1]; D20) of the same molecule?
A: 391.90 mm^3

Q: What about the “MRTV (mean relative tumor volume)” value ([1]; D20) of the same molecule?
A: 2.60

Q: And the “Growth inhibition based on T/C ratio, T/C ratio (%)” value ([1]; D20)?
A: 29%

Q: What about the “MTV (mean tumor volume)” value ([1]; D22) of the same molecule?
A: 485.42 mm^3

Q: What about the “MRTV (mean relative tumor volume)” value ([1]; D22) of the same molecule?
A: 3.47

Q: What about the “Growth inhibition based on T/C ratio, T/C ratio (%)” value ([1]; D22) of the same molecule?
A: 16%

Q: And the “MTV (mean tumor volume)” value ([1]; D24)?
A: 642.24 mm^3

Q: And the “MRTV (mean relative tumor volume)” value ([1]; D24)?
A: 4.83

Q: And the “Growth inhibition based on T/C ratio, T/C ratio (%)” value ([1]; D24)?
A: 15%

Q: What about the “MTV (mean tumor volume)” value ([1]; D26) of the same molecule?
A: 529.95 mm^3

Q: And the “MRTV (mean relative tumor volume)” value ([1]; D26)?
A: 4.14

Q: And the “Growth inhibition based on T/C ratio, T/C ratio (%)” value ([1]; D26)?
A: 45%

Q: And the “MTV (mean tumor volume)” value ([1]; D28)?
A: 615.96 mm^3

Q: And the “MRTV (mean relative tumor volume)” value ([1]; D28)?
A: 4.51

Q: And the “Growth inhibition based on T/C ratio, T/C ratio (%)” value ([1]; D28)?
A: 45%

Q: And the “inhibition of human endothelial cell migration” value (HUVEC [4])?
A: inhibited human endothelial cells migration in a dose dependent manner
